# Results taken from the supplement of paper PMC10567573.
# ± gives the standard deviation.
# Assay: protein stability index of a GFP-peptide fusion (GPS, HEK-293T) (PSI 1-6); higher = more stable
# [1] = treatment: DMSO, c terminus: a fixed tail appended
# [2] = treatment: MLN4924 1 uM, 8 h, c terminus: a fixed tail appended
# [3] = treatment: DMSO, c terminus: native
# [4] = treatment: MLN4924 1 uM, 8 h, c terminus: native
# 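Also: 24-mer peptide tiles fused after GFP, lentivirally expressed, FACS-sorted into six equal bins by GFP/DsRed ratio, decoded by Illumina sequencing, PSI is the read-weighted mean bin number.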
Sequence,protein stability index [1],protein stability index [2],protein stability index [3],protein stability index [4]
GFTKEQQRLGIPKDPRQWTETHVR [ETS1],3.25 ± 0.58,3.27 ± 0.25,–,–
GPADCSPPHPAPAPQHPAASALRT [DYRK1B],4.81 ± 0.24,4.92 ± 0.15,–,–
VRNQQSLAVSNMGARSKGQCPEPP [PTPN9],4.3 ± 0.11,4.21 ± 0.39,–,–
ESLEPDAQVLMLGQILELPWKEET [FANCE],4.17 ± 0.11,4.17 ± 0.33,–,–
LATLEGDDPSLRKTHSSPALSQGH [PSD2],4.44 ± 0.14,4.6 ± 0.16,–,–
FASGFKRAFKIKDFANTIPGHGGI [CDS1],2.65 ± 0.43,2.47 ± 0.66,–,–
KIQDLIDDKDALVFVLIDEVESLT [TRIP13],2.46 ± 0.36,2.36 ± 0.11,–,–
SNCCFTFSGHFLCTSSWDKNLKIW [WDR88],2.22 ± 0.97,2.3 ± 0.4,–,–
LPQVAEEISGPLTSANKITLVSSG [FLOT1],3.78 ± 0.23,4.23 ± 0.21,–,–
LLESLNQQRLQGQLCDVSIRVQGR [ZBTB22],2.59 ± 0.21,2.67 ± 0.21,–,–
ELDNPMQQKWTKPARAGSEVEWTE [C2CD2L],4.1 ± 0.36,4.25 ± 0.21,–,–
FLRQLRASHLGNELEGTEELCCVA [C2CD2L],2.98 ± 0.1,3.19 ± 0.3,–,–
AESLKGKLEEERAKLHDVELHQVA [GNB5],5.02 ± 0.33,5.23 ± 0.29,–,–
RPGVQDAALIEAIQDRLSNTLQTY [VDR],2.78 ± 0.3,3.09 ± 0.28,–,–
KAPYLCEATHEPAAARIRAQVPDT,4.65 ± 0.4,4.2 ± 0.68,–,–
TRTTSFKGTSPSSKYVKLNVGGAL [KCTD10],3.01 ± 0.41,2.87 ± 0.28,–,–
VGQSLRIKEQEVCKLQEQLEATVK [SASS6],4.15 ± 0.44,4.26 ± 0.19,–,–
TDIDLQTIDNDIVSMEIFFKAWLH [M1AP],2.39 ± 0.33,2.34 ± 0.45,–,–
AVSCVFLAFVIVLLAHRLRRWHKS [PCDHGA10],2.33 ± 0.36,1.92 ± 0.23,–,–
RKLLSPVSREENREDKATIKCETS [PPFIA4],5.11 ± 0.27,5.14 ± 0.26,–,–
SYLLKSGADKEILTTKGEMPVQLT [ANKRD40],3.46 ± 0.38,3.55 ± 0.19,–,–
QGVEGDHCVTSDPATSPLVLAIPR [TRIM35],4.43 ± 0.27,4.66 ± 0.22,–,–
SKIDHYVLEYRRTNFEGPPRLKED [FSD1],3.52 ± 0.15,3.63 ± 0.087,–,–

Sequence,protein stability index [1],protein stability index [2],protein stability index [3],protein stability index [4]
SVTGYSFASDGDSGTCSPLRHSFQ [ADD1],3.28 ± 0.25,3.11 ± 0.36,–,–
DGKLFPSDGFRDCKKGDPKHGKRK [ELF3],5.1 ± 0.29,5.38 ± 0.26,–,–
FGPGQTLLSSVHVLDLEARGYIKP [ALKBH7],2.43 ± 0.24,2.67 ± 0.3,–,–
VFDNAIRAALISRRHLQFWKSHLR [RHOBTB2],2.23 ± 0.38,2.1 ± 0.3,–,–
KLNKPPETLITTIDSSSSWWTNWV [CYB5A],2.64 ± 0.23,2.47 ± 0.35,–,–
LQELLTHDTKDQSPSRAPGLRQRA [HMOX1],4.33 ± 0.26,4.62 ± 0.33,–,–
PKRRWLFWNSPSSPSSSAASSSSP [RHOBTB2],3.57 ± 0.2,3.75 ± 0.18,–,–
DCEMNSPQVPPSQPLRPWAGGDVP [DYRK1B],4.32 ± 0.13,4.62 ± 0.15,–,–
GSSDSEEERATRLAELQEQLKAVH [BRD3],5.13 ± 0.23,5.15 ± 0.27,–,–
PALDWDSVHVPGPHAMTIQELVDY [PTPN9],4.08 ± 0.2,4.31 ± 0.15,–,–
SGSGSGPGCGSVPGSGSGPGPGSG [SPAG8],5.08 ± 0.24,5.12 ± 0.12,–,–
SVMAIERCIGVTKPIFHSTKITSK [PTGFR],2.71 ± 0.16,2.98 ± 0.49,–,–
DDHSVRVAREDVRESCPPLGLETL [CPXM2],4.85 ± 0.37,4.92 ± 0.18,–,–
IEQFSESHAIHVEEQSDQSFSSLE [IQUB],5.1 ± 0.095,5.14 ± 0.17,–,–
DLQLTVGGAQASGTLIGVGQSVTA [MFSD9],3.52 ± 0.34,3.6 ± 0.24,–,–
LGWAQPCDVWSIGCILFEYYRGFT [CLK3],3.31 ± 0.71,2.93 ± 1.5,–,–
KVESGAWIGYEHTSFCGQQFILER [CRYBA1],2.18 ± 0.26,2.18 ± 0.19,–,–
HVSYRELGACVRTAVAQGGWRSLW [SLC25A39],2.01 ± 0.19,2.13 ± 0.2,–,–
GAAESPYGHPAGIDYKTTTILLDG [RAB40B],4 ± 0.067,3.96 ± 0.25,–,–
SRVTDPVGDIVSFMHSFEEKYGRA [FAF2],3.34 ± 0.25,3.59 ± 0.36,–,–
EGNLAETENRYCVQLSQIQGLIGS [KRT17],3.63 ± 0.15,3.94 ± 0.12,–,–
LDITNPKAVLENALRNFACLTTGD [UFD1],2.65 ± 0.21,2.46 ± 0.19,–,–
AKKFRKAVTDLLGRRQRKSEKRRD [WASL],3.88 ± 0.52,3.89 ± 0.2,–,–

Sequence,protein stability index [1],protein stability index [2],protein stability index [3],protein stability index [4]
HAVVGVATALAPLQTDHYAALLGS [SPSB2],2.37 ± 0.18,2.29 ± 0.39,–,–
TAEKRKRLGELFNPYYDPLQWKSS [CHGB],2.54 ± 0.17,2.93 ± 0.34,–,–
AFSNRSKQLRRQMWWRGCKIKAIM [VAMP4],2.35 ± 0.082,2.44 ± 0.27,–,–
FALLADKAAQQGKQEENDVVEKLN [SNX8],5.38 ± 0.13,5.33 ± 0.15,–,–
FGAVTNVKVIRDFTTNKCKGFGFV [ELAVL3],2.42 ± 0.21,2.19 ± 0.38,–,–
PQPNYADTLISQESCEKNDPLSLL [PCDHGA10],4.83 ± 0.11,4.85 ± 0.17,–,–
DQDLRTYLDKAPPPGLPAETIKDL [CDK4],5.07 ± 0.28,4.94 ± 0.2,–,–
NDYICPATNQCTIDKNRRKSCQAC [ESR2],4.44 ± 0.21,4.83 ± 0.17,–,–
TTQSAEVGAAETTLTELRRTVQSL [KRT18],4.63 ± 0.22,4.55 ± 0.4,–,–
EAAEAETAKDNGEAEDQEEKEDAE [SRPK2],5.55 ± 0.4,5.73 ± 0.29,–,–
AISVVGVSAGGHTLSRPPPAQVPR [TFE3],3.38 ± 0.24,3.35 ± 0.24,–,–
DRMARPSGRSGHNTRGTGSSSSGV [CSNK1G3],4.87 ± 0.13,5.03 ± 0.098,–,–
VESSLNVKTKKNAPSATIHQGEEE [FBXO34],5.37 ± 0.22,5.49 ± 0.2,–,–
EYDTVTREVKVLLDQLRFPNGVQL [APMAP],2.01 ± 0.42,2.22 ± 0.39,–,–
GKAATMEIPIHGNGEARQLPEDDG [ARFIP2],5.58 ± 0.15,5.34 ± 0.21,–,–
TRRTLKGHGNKVLCMDWCKDKRRI [GNB5],3.02 ± 0.37,3.25 ± 0.23,–,–
GTKLIFRRRPRQKEAGLSQSHDDL [C2CD2L],4.03 ± 0.46,4.04 ± 0.3,–,–
ICSSLQNLEKTIFCLQKLISLHPF [C8orf76],3.28 ± 1,2.65 ± 0.39,–,–
ALARDLLSETADPFFVLNSDVICD [GMPPB],3.07 ± 0.069,3.32 ± 0.26,–,–
FEAEPLPENTNRQLLLQFERLVVL [PI4K2A],2.12 ± 0.1,2.14 ± 0.26,–,–
RPNLETYYERVLKRKTFNKVLGHV [GDAP1],2.46 ± 0.092,2.47 ± 0.32,–,–
SLSLRLPHQPVTAITRVSDRFSGE [SMTNL2],3.8 ± 0.28,4.16 ± 0.1,–,–
KRAESDSRKSSIPNNKEIPSHHPT [PTPRD],5.151 ± 0.046,5.08 ± 0.078,–,–

Sequence,protein stability index [1],protein stability index [2],protein stability index [3],protein stability index [4]
MSGRSKRESRGSTRGKRESESRGS [USP39],4.96 ± 0.12,5 ± 0.46,–,–
RKSLALDIVDEDVKLMMSTLPKSL [MYBL2],2.98 ± 0.27,2.76 ± 0.29,–,–
EQDMERRKADFKAGKALVISGREV [ZC3H15],4.8 ± 0.3,4.89 ± 0.18,–,–
DVKARLEGEIATYRHLLEGEDCKL [KRT36],4.22 ± 0.21,4.29 ± 0.075,–,–
RDCLVLNQGYLSEAGASLVDQKLE [PI4K2A],4.29 ± 0.28,4.54 ± 0.11,–,–
AQRHRGSAKDGGPQPPDAPQLVSS [PLEKHN1],5.04 ± 0.51,5.22 ± 0.28,–,–
GWYRPPFSRVVHLYRNGKDQDGDQ [MOG],3.67 ± 0.34,3.73 ± 0.26,–,–
TGLSGGKRPSQEEDTQSIGPKVQR [CRY1],5 ± 0.33,5.04 ± 0.23,–,–
EPIILPCSHNLCQACARNILVQTP [TRIM9],2.45 ± 0.18,2.68 ± 0.23,–,–
FLHVRKATRAMGLLNTLSLAFVGG [TMEM175],2.16 ± 0.59,1.98 ± 0.35,–,–
EALQNFFSLACSLMGPSRMSLFSL [M1AP],2.89 ± 0.75,3.09 ± 0.74,–,–
IITRHNLTYEFLQARLRQHYQTI [CLCN6],–,–,2.75 ± 0.49,2.69 ± 0.46
PSAALTTMQLFSKQNPSRQEVTKL [FBXO28],4.16 ± 0.37,4.37 ± 0.23,–,–
MAFFLCLGLALGAVFSFLFRAIV [SLC29A1],–,–,4.33 ± 0.19,4.14 ± 0.24
VCQKLLLDAMNYHLMPFRQHCRQS [KLHL14],3 ± 0.47,2.99 ± 0.62,–,–
DMAGKIKLWDLRTTKCVRQYEGHV [DCAF4],2.56 ± 0.18,2.68 ± 0.35,–,–
HATALVEAFRLKQQLHARYVLNLL [PPEF2],2.43 ± 0.38,2.6 ± 0.51,–,–
QNHGQHLILSREASWAKPHYEFNL [LCOR],2.28 ± 0.23,2.51 ± 0.35,–,–
VSAQRERPRRRDGPEHATRLNGTA [DVL3],4.7 ± 0.17,4.81 ± 0.21,–,–
GHHQGMPGYLPGAMPPYGQGPPMV [ZNF207],2.86 ± 0.43,2.84 ± 0.2,–,–
